In publication PMC9806585:

Substrate: NC(=O)CC[C@H](N)C(=O)O
Assay: cells, lysate or membranes
Conditions: standard assay: 0.4 mM oxaloacetate, pyridoxal phosphate, 150 mM sodium borate pH 8.5, 37 °C, enzyme not fully purified

B1: recombinant Arabidopsis GTK (Gln transaminase K) (Arabidopsis thaliana) (protein)
chain: MYLDINGVMIKQFSFKASLLPFSSNFRQSSAKIHRPIGATMTTVSTQNESTQKPVQVAKRLEKFKTTIFTQMSILAVKHGAINLGQGFPNFDGPDFVKEAAIQAIKDGKNQYARGYGIPQLNSAIAARFREDTGLVVDPEKEVTVTSGCTEAIAAAMLGLINPGDEVILFAPFYDSYEATLSMAGAKVKGITLRPPDFSIPLEELKAAVTNKTRAILMNTPHNPTGKMFTREELETIASLCIENDVLVFSDEVYDKLAFEMDHISIASLPGMYERTVTMNSLGKTFSLTGWKIGWAIAPPHLTWGVRQAHSYLTFATSTPAQWAAVAALKAPESYFKELKRDYNVKKETLVKGLKEVGFTVFPSSGTYFVVADHTPFGMENDVAFCEYLIEEVGVVAIPTSVFYLNPEEGKNLVRFAFCKDEETLRGAIERMKQKLKRKV
Km: 300 µM
